Columns and labels:
WT SARS2 RBD [1] = target: T1, WT SARS2 RBD (SARS-CoV-2 Wuhan (MN908947), UniProt P0DTC2); assay: SPR; conditions: both partners purified
T1 construct: not shown: Fc (human IgG1), C-terminal, cleaved

WT SARS2 RBD [2] = target: T1, WT SARS2 RBD; assay: cell-based or functional assay

B1: aRBD-2 (VHH)
VHH: QVQLVESGGGLVQAGGSLRLSCAASGRTYTMGWFRQAPGKEREFVAAMRWSDTDYADSLKGRFTISRDNANNAMYLQMNSLGPEDTAVYYCAAGEAWLARSTHHYDYWGQGTQVTVSS
B1: binds (WT SARS2 RBD [1]).

B2: aSA3 (VHH)
VHH: QVQLVESGGGLVQPGGSLRLSCAASGFTSDHYALAWFRQAPGKEREGVSCIDSDGNPFYADSVKGRFTGSRDNAKNTVYLQMNSLKLEDTAVYYCAAGLWYGRSLNSFDYDYWGQGTQVTVSS
B2 was tested, and the Kd (WT SARS2 RBD [1]) was 0.0519 nM and the “IC50, neutralisation of WT SARS2 pseudovirus (blocks RBD-ACE2)” value (WT SARS2 RBD [2]) was 0.97 nM.
